Experimental findings from patent US20230105667A1, “MESENCHYMAL STROMAL CELLS AND EXTRACELLULAR VESICLES FOR TREATING VIRAL INFECTIONS, INFLAMMATION, AND TISSUE FIBROSIS” (EXOSTEM BIOTEC LTD., priority 2020, published 2023) are described below.

The assay deals with human ACE2 on cells (human lung epithelial cells expressing ACE2 (human) (UniProt Q9BYF1)). Nature of the assay: cell-based or functional assay.
UniProt Q9BYF1, sequence (Q9BYF1 18-805 limits assumed): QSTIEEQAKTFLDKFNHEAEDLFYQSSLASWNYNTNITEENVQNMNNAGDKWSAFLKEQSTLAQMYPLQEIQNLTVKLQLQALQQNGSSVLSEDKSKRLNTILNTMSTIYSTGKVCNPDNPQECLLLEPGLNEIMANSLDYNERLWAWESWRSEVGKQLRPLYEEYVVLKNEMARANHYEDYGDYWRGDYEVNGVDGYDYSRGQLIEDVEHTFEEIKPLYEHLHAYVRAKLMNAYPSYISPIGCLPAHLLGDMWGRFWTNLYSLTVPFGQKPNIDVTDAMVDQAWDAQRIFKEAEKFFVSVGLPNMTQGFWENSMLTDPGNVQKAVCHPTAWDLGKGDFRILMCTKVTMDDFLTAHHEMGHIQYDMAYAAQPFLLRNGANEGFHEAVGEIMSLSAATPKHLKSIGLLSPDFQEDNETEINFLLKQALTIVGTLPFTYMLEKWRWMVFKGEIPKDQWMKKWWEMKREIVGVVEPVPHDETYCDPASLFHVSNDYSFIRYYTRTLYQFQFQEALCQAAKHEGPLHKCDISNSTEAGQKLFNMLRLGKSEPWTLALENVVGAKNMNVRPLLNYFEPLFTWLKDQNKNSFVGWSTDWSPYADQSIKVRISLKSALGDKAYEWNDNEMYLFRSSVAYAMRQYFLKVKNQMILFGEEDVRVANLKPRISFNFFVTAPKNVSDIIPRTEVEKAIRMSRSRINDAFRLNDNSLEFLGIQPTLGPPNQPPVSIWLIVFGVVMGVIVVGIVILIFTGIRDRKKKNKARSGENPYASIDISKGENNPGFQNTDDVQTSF

Turning to “SARS-CoV-2 receptor-binding-domain (RBD) displayed on extracellular vesicles from MSCs (ligand)”, the TNFα levels in HBE cells treated with RBD recombinant protein stood at 50%.
